The nature of this data set: label from the status in PepcDB records.

As to “MTARYIAIDWGSTNLRAWLYQGEECLESRQSEAGVTRLNGRSPAAVLAEITQHWRDGATPVVMAGMVGSNVGWKIAPYLPLPAAFSDIGQQLTAVGDNIWIIPGLCVSRDDNHNVMRGEETQLLGARALAPSSVYVMPGTHCKWVLADRRQIHDFRTVLTGELHHLLLQLSLVGAGLPPQETSAAAFAAGLQRGINNPAVLPQLFEVRASHVLGALPREQVSEFLSGLLIGAEVATLSDTFAGQQAISLVAGSSLTSRYQQAFAAIGREVSAVAGDTAFQTGIRSIAYAVAN”, the protein production result was “not failed”.

As for “MTASTALTVAIWIGVMLIGGIGSVLRFLVDRSVARRLARTFPYGTLTVNITGAALLGFLAGLALPKDAALLAGTGFVGAYTTFSTWMLETQRLGEDRQMVSALANIVVSVVLGLAAALLGQWIAQI”, the protein production result is “failed”.

For the sequence “MTATAQQLEYLKNSIKSIQDYPKPGILFRDVTSLLEDPKAYALSIDLLVERYKNAGITKVVGTEARGFLFGAPVALGLGVGFVPVRKPGKLPRETISETYDLEYGTDQLEIHVDAIKPGDKVLVVDDLLATGGTIEATVKLIRRLGGEVADAAFIINLFDLGGEQRLEKQGITSYSLVPFPGH”, the protein production entry is reported as “not failed”.

With “MTAVFRNTVLVRFKHCDAAGIVFYPRYFEMLNDFIEDWFAQALDWPFDAMHGAGQAGVPTADLHCRFVAPSRLGETLTRELRVVKLGQSSFTVQVRFMGPDSGLRLEVTQRLVCVDTDKIAPRPLPDPVRQAMATYVDETLAATGSPGL”, the protein production entry was “not failed”.

“MTAVGADAPKPGAPIKEPRFGFLRRTYAMLVKELIQLKRDRLTFAMIIVIPVMQLLLFGYAINTTPRHLPTAVLLQEDSDLGRSILKALENTAYFKFTREVHSVAEFDDLLLSGRVLFGVEIPRGFERAVRRGEKPAILVAADATDPVAAGSALSALGQIVQTALMHDRVGGDPANPPFEIRAHARYNPAASSRLNIVPGLVGTILTMTMLIFTALSVTREIERGTMENLLSMPITPVEVMLGKILPYVGVGFIQASLILGIGVLLFGVPLRGSLAMLALLSTLFITTNLAIGYTFSTLVQNQLQAMQASMMFFLPSILLSGFMFPFAGMPIWAQYIGECLPLTHYLRIVRAIMLKGSTLENLQYDAVALLTLMLIAMTIAVTRFRRTLD”: the protein production result is reported as “failed”.

Turning to “MTAVQLMELDSCTRCGECVKWCPTYAASGQKPGLAPRDKILRWRQYMNKSYGLKAKLFGPTEIPQSELEEFKDDVHGCTTCGICATVCESGINTVELWESLRTNLVKKGIGPFGKQGMFPKLEHHHHHH”, the protein production entry was “failed”.

With “MTAVRRIRAAALPDLPDASWSNALLVGEELVMSGMTAHPATRQAAERGAALDAHAQALVVLGKVKALLEAAGGHVGNLYKLNVYVTRIADKDAIGRARQEFFAGQGTFPASTLVEVSGLVFPELLVEIDAWARLDIDLANCDEA”, the protein production entry is “not failed”.

As to “MTAWSLLHVGVFASVVMVVGWLWQRRSGNAGPVDVLWAGCLALAAPYCAWMADGALLPRALVAVLGGVWGARLALHLGVRVFGDPHEDGRYRALREHWNGSQGKFLGFFLAQAVVVVLFAVPFLAAASNPHAEWSAWTGIAIVVWLIAVGGEALADRQLSAHKANPANRGKTCRTGLWRYSRHPNYFFEFVHWFAYLALAVGAGPWPVALCALGPVVMFVFLYRFTGIPYTEQQALRSRGEDYAQYQRSTSAFFPLPPSS”, the protein production entry is reported as “failed”.

As for “MTAYWIAHVTIHDMQQYQEYMKLAPAAFQKYGAKFLARGGESVCVEGQAYQRHVIIEFPDLATAQQCYDSEEYKQARLAREGCADVMISFVEGLPTN”, the protein production result is “failed”.

Regarding “MTCPEQAIEHDDMNVVVDVEKCKFCMDCIPVCPTGSIDNWRVVDTPYSLEDQYGWMDLPPQEDVAGDEAGLEALDDAMAALLAEAHKGAGGKSRAPATASKPTINLYTLGKPAEARVTGNYRLTAESSDSDVRHIILDFGGQPFPVLEGQSIGIIPPGTDEAGNPHLPRLYSVSSPRDGERPNFNNLSLTVKREPHGICSNHVCDLKPGDTVRVTGPFGATFLMPSDPAAHLLMICTGTGSAPFRAFTMRRQRESPKLRNSLTLVFGARRPQELPYFGPLAKVPEQFMAKHFAFSRQDGAPKHYVQDRLRAEADRVGELLADPLTHVYVCGLKAMEQGVEEAFKDIARAQGIDWTGLRDRMRDEGRYHVETY”, the protein production result was “failed”.

Take “MTDATVGDEAAAPTVVRLDASCTTQEVEAGEYYHATVNGVVEYGAFVDLSEHVSGLIHESTYSGDPDLAVDDDVIVHLSAVRDNGDLSFEFVDPEEYRTEQRSHAYERTTADAVGSRIGDTVHIEGEVVQIKQTAGPTVFRVRDETSAIPCTAFEDAGVRAHPGVEVGDIVHVSGDADDREGTTQLEVDAFEVLSGGDSADVARRLDAALAEQADPVDVDALVDWPALEQLLPDLRSVARTLRRAVLEGRPIRMRHHADGDGMCASLPVQYALRQFIEDTHQDEDAARHLLKRLPSKAPYYEMEDATRDLNFALEDRARHGQKLPLLLMLDNGSTEEDTPAYKTLDNYDIPIVVVDHHHPDPGAVDPLVDEHVNPYLHGEDYRITTGMLCVELARMIYPGITSDLEHVPAVAGLSDRSKADAMTDYLDLARDAGYDESFLQQMSEALDYEAYMLRYDHGTQVIADILNVDGDAQRHRELVPFLDRLASEAVAEQLDATRSHVEHERVASGANLYRIDVENHAHRFTYPRAGENNRRDPRPQGRGNRGAGDHHRLRPGLRGAPVGRRAPGHPHDGRRTQRRTPWGRRLRRRPPGRRLDPVRSRDA”: the protein production entry is listed as “failed”.

Consider “MTDDPTLWAQRLEEAVVGLGANGDRSHDLAHAKRVLRTALALADGVEDQGEGPVDRLVLTAAAYLHDIVAIEKNDPRRSLASRLSAAKAREILGGLDFPAGRQDGVAHAIEAHSFSAGIAPRSLEARILQDADRMESLGAIGVARTFYVAGRLGSALFHDDDPLAFARPLDERAYALDHFFTKLLTLPATMTTAPGRAMAGERAELLRAFAEALAQEVSGAAAPGPRPARPSDGEAPSPLPVWPGSGTRTR”, for which the protein production entry was “failed”.

With “MTDDVDDGWAASAAAWIIEQGEDGDYGRRFVLDAPMRARIEGRGFRNALDVGCGEGRFCRIMQRAGIRTTGIDPTEALLARARELDPRGDYRLGRAETMDIDACFDLVVSYLSLIDIPDLGTAIAKMVGALRPGGTLLIANLTSFNTAGQPDGWARDRKGEMRFAIDHYMDERPIWLSWRGIRLQNWHRPLGTYMTLLLDHGLQLRLFVEPEPTSGDPRRNDLHRRVPYFHMMEWQKPA”, the protein production entry is recorded as “failed”.

Regarding “MTDESSVRTPKALPDGVSQATVGVRGGMLRSGFEETAEAMYLTSGYVYGSAAVAEKSFAGELDHYVYSRYGNPTVSVFEERLRLIEGAPAAFATASGMAAVFTSLGALLGAGDRLVAARSLFGSCFVVCSEILPRWGVQTVFVDGDDLSQWERALSVPTQAVFFETPSNPMQSLVDIAAVTELAHAAGAKVVLDNVFATPLLQQGFPLGVDVVVYSGTKHIDGQGRVLGGAILGDREYIDGPVQKLMRHTGPAMSAFNAWVLLKGLETLAIRVQHSNASAQRIAEFLNGHPSVRWVRYPYLPSHPQYDLAKRQMSGGGTVVTFALDCPEDVAKQRAFEVLDKMRLIDISNNLGDAKSLVTHPATTTHRAMGPEGRAAIGLGDGVVRISVGLEDTDDLIADIDRALS”, the protein production entry was “not failed”.

Consider “MTDIHPREILICTIAKLLDGVRHVAVGASSPIPASGAMLLRALKQQAGETGPRISILGSVEHNFFTNGSAELFDCAGQGRIDAFFLGGGQIDGQGNINLVGTGEYPQTQVRWPGSFGSAYLYYVVPRVILFREEHTPRAMVEKVDFISAPGLSDEGVYRPGGPIALLTSKALFRFDKNRRGFELESVHPGYDLAAIKEATGFKFAHDDVPAQTALPDPQVLKLLRERVYDEVAETYPDFAAQMRREIAQPLPRAS”, for which the protein production entry is given as “failed”.

Regarding “MTDIRKAATLVVIRDGANKDIEVLVVRRAKTMRFLPGFVAFPGGAADPSDAEMAKRAFGRPVCAEDDDDPALAVTALRETAEEIGWLLAVRDGEGTKMDTPLAPDEQADLCKGGDALSAWLSARGLAFDLGLLRRIGRFVTPPTQPVRFDTRFFLCVGQHLGEPRLHGAELDAALWTPARDMLTRIQSGELPAVRPTIAVLKALVACPNAEIAMSTLSIGPLPPPAPRA”, the protein production entry is listed as “not failed”.

On to “MTDQRFKIVFSGELMPDASLETVKDNLARLFKSEPGKIDALFGGRPVVLKRELPEAEAERYLTALRQAGANAYKEVDLAASLSLVETPDHNPQVAEETPAQDLPPMTCPKCGHEQPSGAECSACGVIIEKYLARQAQLGENAAPAATAAAGASPYTPPSAQVGDTLPEFGELNVFTTNGRIGRLRYLGWSMAMTLCFLVIMGLGFLLGETVGVAVTALASIAFIVIAVMIGVQRLHDLGWSGWLWLLNFVPFVGSVFGILMLVLPGSTGANRYGPPPPANSTGVKVLASLIILLPIVGIIAAIALPSYQGYLERANYDGGASAPADPYTTDEQAAAAAAEADEAATAAAEAMEDDDQQ”, for which the protein production entry is listed as “failed”.

With “MTDQTKPSWTADRGADLLGALFFLTRLPTPTTHTPPPFTRAVWAFPLAGALVGLIGALAVGGAQALGLSPTLAALLGVSVMALVTGAMHEDAVADIADGFGGGRTRERVLEIMRDSRVGAFGVTALVLVLALRVAALAALAGGPWAMAALVCAAGLGRGAAVLMLGLLPPARTDGLGASFGRPQQASLAFALILCLVLAVVLLPGAAPAVALVGMVAPTLYLAWRAKVRIGGQTGDVAGAAALIGETLALVGLSAMLGAAP”, the protein production result is “failed”.

With “MTDTLFKIMFEGQVRDGVEPETAKANLAGLFKSETAAVQKLFNGEPIALKRGLVHAEAERYIEALKEAGVEARIEPDQAISFNLNEVGNQASPWTPARQAPQDASPYAPPKAQVGSEHYGHSTLKVFTTNGRIGRLRFLAWSMVQCVALVALIALALIVLNWSLVAGGLLIAVLVVVFVTIGVMIGVQRLHDLGWSGWLLLLNLVPFVGSLFPFLIMLLPGTRGANQYGPPPPPNTRGVKVLGIIWIAMIPVISVASIYYSIGKLAEAELALQTDEYEQSLPYDDEQEPGSALNAPADVIEEPQDQNDKQ”, the protein production entry is reported as “failed”.

Turning to “MTDWIQNLMDSMGYLGILLLMVLENVFPPIPSELIMPSAGFAAARGDMSLGMVVLMGTLGSVIGTLPLYYIGRAFGEDKLVAWADKHGKWLTLSGKDIKKADAWFDRYGAGAVLFGRMVPGIRSLLSLPAGMSEMPLPKFLIYSAIGSALWSAALAYAGYALGENYDRVEQYVAPVSKVIVGLLVIGAAAWFIRRKREQGSRTGG”, the protein production entry was “failed”.

As for “MTEAPRKITDDPYGAWHLIRRLVMEQASAYWRRYALAFGLMAIAAAATSGSAFLLGKVINQAYVDRDLQGIMFWSVVTLVVFSLKGAATYGQSVILTQIKNAILANNQRRMFHKLMSESIGFFSQRHSSEFLARLTAGANSVTEVLNLLINAIGRDLLSLIGLVIVMVVQDPFMALFGLLVAPPAAFVVRKLVKRVKGLALTQFTGNAQILETMQESLQGIRTVKAFSLEKTMSDRIDANIAAVQANADKMAKVSNRSSPLMETLGGFAVAASLMYGGYRVVATGATPGEFFSFLTAFLLAYEPAKRLARLNIELNSGLVGARMLLEIIDSPPSEPDDSHKPALQLTEARVEFDHVSFAYRPDEPVLNAMSFVAEPGKMTALVGPSGGGKSTVLALLLRLYEVQSGEIRIDGQSTSTVSRESLRRQTAYVGQDVYLFRDTVRANIAFGKLGATEDEIVAAAKAACAHDFIMGFPLGYDTPVGEHGAQLSGGQRQRIAVARALLRDAPIVLLDEATAALDSESEKLVQEAIDRLARGRTTIVIAHRLHTIMHADSILVVEAGEIVEQGRHDDLLRRSGRYASFFRLQQRHATPLAPADATA”, the protein production result is “failed”.

Turning to “MTEEQLQALRAAISVCRRCRDEPARGEGHRLPHEPRPVAVLSASARILIAGQAPGLRVHESGLPFNDASGDRLRQWLSVDRAAFYDQRNFAIVPMGFCFPGYDRHGSDLPPRSECAPLWRQRAMDAMPQIELVLAVGHYAQRWHLGTDCPKSMTETVRNWQRYAKRNSGISVLPLPHPSWRNTGWLRRHPWFEAELLPFLRERVQALTI”, the protein production result was “failed”.
